Assay results as given in the supplement of paper PMC9732359.
± gives the uncertainty stated by the source.

assay: protein stability index of a GFP-peptide fusion (yeast GPS) (PSI 1-4); higher = more stable; sorted into four equal gates, so the index is relative within each strain; details: pdr5∆
How it was run: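 Tiled 17-residue yeast protein peptides were fused downstream of GFP in a plasmid that also expresses Cherry, and the pooled library was carried in yeast. Mid-log cultures in leucine-free medium were sorted into four equal gates by GFP/Cherry fluorescence ratio, and plasmids from each gate were PCR-amplified and Illumina-sequenced, with reads assigned to strains by barcodes. The protein stability index for each peptide was each gate's read frequency times its gate number, summed.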

Compared with VLRLKPGRKYTTLGKLS [RPL16A], VLSALEGKSVDELITEG [RPP2A] is higher in protein stability index: 2.94 ± 0.05 for the first, 3.23 ± 0.15 for the second.

In the case of VLTQLTALALKYLIKYN [CSI1], the protein stability index is reported as 2.75 ± 0.08.

same assay, conditions: san1∆

VAIQQGDIKPEFSPRLH [YML103C/NUP188] and VAKTAPNSNKTHTEQNN [SNF2] are within error of each other in protein stability index: 3.07 ± 0.099 for the first, 3.01 ± 0.033 for the second.

VAKVDEEGRAIPGEYIT [RPS21B] and VANSPNKRLDVIDGKLP [YDL088C/ASM4] are within error of each other in protein stability index: 2.44 ± 0.1 for the first, 2.42 ± 0.094 for the second.

Compared with VAQLKPFFKYIDDANVT [RPC37], VARTFWASKYGQEYPRI [BRR2] is lower in protein stability index: 2.9 ± 0.062 for the first, 2.32 ± 0.17 for the second.

VATNIVNEDPIFHPMIH [YML103C/NUP188] and VCGIIVKQEDMPFNDQG [RET1] are within error of each other in protein stability index: 2.44 ± 0.045 for the first, 2.46 ± 0.26 for the second.

First: VDAYRRLENKLSEIESL [SRP68]
Second: VDDSMELCGQIRSERFK [ITC1]
The protein stability index of the first is lower: 1.57 ± 0.11 for the first, 3.28 ± 0.086 for the second.

First: VDEPMTSAVELGAIEQI [YJL039C/NUP192]
Second: VDINRLKKGEVSLGTSI [PRE3]
The protein stability index of the first is higher: 3 ± 0.16 for the first, 2.11 ± 0.081 for the second.

First: VDKELLEPGCSVLLHHK [RPT2]
Second: VDKIFEKVNNNATLTPN [SWI1]
The protein stability index of the first is lower: 2.51 ± 0.17 for the first, 3.22 ± 0.069 for the second.

First: VDLTSSNFADSADYEIL [YDL116W/NUP84]
Second: VDQGQIYRDRSTFTKHL [ITC1]
The protein stability index of the first is higher: 3.31 ± 0.093 for the first, 3.15 ± 0.042 for the second.

First: VDSRTKIRMLTQAAEFL [IRR1]
Second: VDVQAPTDDKTLKPTFS [YOR098C/NUP1]
The protein stability index of the first is lower: 1.78 ± 0.11 for the first, 3.16 ± 0.19 for the second.

Compared with VEDALDKDSTKEVASLP [FAS2], VEDTLHVNKRKRVSGTS [YOR098C/NUP1] is lower in protein stability index: 3.12 ± 0.12 for the first, 1.73 ± 0.15 for the second.

First: VEIEKRILKLGTQLATL [YGR119C/NUP57]
Second: VEILFEAGASAELDDCR [RPO21]
The protein stability index of the first is lower: 1.94 ± 0.18 for the first, 2.93 ± 0.074 for the second.

Going from VEKRIGKIVSQRGKWNL [RGR1] to VENIERVVMMKYDRKVP [RPO21], the protein stability index falls from 3.16 ± 0.06 to 2.13 ± 0.19.

First: VESQFSAGRLYACISSR [RPS8A]
Second: VEYLDVNEENDSYIALY [RET1]
The protein stability index of the first is lower: 1.99 ± 0.14 for the first, 3.2 ± 0.08 for the second.

VEYVDPTVNRVPNYEVS [RPN7] and VFFDDDPLYDITKVPAL [REC8] are within error of each other in protein stability index: 2.92 ± 0.25 for the first, 2.7 ± 0.065 for the second.

VFQLPTRLPAFERPAVK [RPC53] and VFVNTGLQNVRKVRTKK [SWP82] are within error of each other in protein stability index: 2.81 ± 0.1 for the first, 2.78 ± 0.17 for the second.

Compared with VGCIFAELIGLQPIFKG [SSN3], VGEEETSQKMKKMVYVL [SRP54] is higher in protein stability index: 3.06 ± 0.04 for the first, 3.31 ± 0.078 for the second.

First: VGEKLVVVVLEEPSASI [SIR3]
Second: VGGKSTVQNEILGDLGK [FAS2]
The protein stability index of the first is higher: 3.2 ± 0.052 for the first, 2.18 ± 0.1 for the second.

Compared with VGGQFSKVQFDAKTSYP [REC8], VGKLFRVGVVSILEAGD [RPL30] is lower in protein stability index: 3 ± 0.077 for the first, 1.58 ± 0.17 for the second.

First: VGLVMFSQFWYWFPLAH [RPN2]
Second: VGVGKLNKLYGGAKSRG [RPS19A]
The protein stability index of the first is lower: 1.66 ± 0.17 for the first, 3.2 ± 0.047 for the second.

VHDKILEDLVFPTEIVG [RPS7A] and VHTIIAGLDEDGKGAVY [PRE7] are within error of each other in protein stability index: 3.27 ± 0.061 for the first, 3.35 ± 0.093 for the second.

Going from VHVQLLINLKISPLMKS [SRB8] to VIDGKLPFMQNAGPNSN [YDL088C/ASM4], the protein stability index rises from 1.55 ± 0.091 to 2.91 ± 0.037.

VIELPLKNPEIFQRVGI [RPT4] and VISTIENVLFYIGRVNK [COB] are within error of each other in protein stability index: 2.46 ± 0.12 for the first, 2.43 ± 0.058 for the second.

VKAFLSIFEDAIKELNY [NUT1] and VKCKMSALQQIMYQQML [SNF2] are within error of each other in protein stability index: 2.55 ± 0.19 for the first, 2.72 ± 0.12 for the second.

Going from VKDELMFSPLVDSGSND [RPO21] to VKGETRIQNRVKLGLNS [PRP8], the protein stability index falls from 3.22 ± 0.047 to 2.23 ± 0.23.

Compared with VKIGDIEKWTANLLPAR [RPS22A], VKKPHRYKPGTVALREI [HHT1] is higher in protein stability index: 2.56 ± 0.076 for the first, 2.75 ± 0.094 for the second.

Compared with VKLMKNITDYETHPDNS [BRR2], VKNKYNVGKQLSNEIIY [PRP28] is lower in protein stability index: 2.54 ± 0.049 for the first, 2.36 ± 0.071 for the second.

VKSEVDVQVDAEEKREA [ITC1] and VKSLVDNMITGVTKGYK [RPL9A] are within error of each other in protein stability index: 3.12 ± 0.23 for the first, 2.92 ± 0.25 for the second.

Compared with VKTSPDAKKCIAACTGV [FAS1], VKVKVSYQKLLKNYVLN [PRP8] is lower in protein stability index: 3.01 ± 0.24 for the first, 1.46 ± 0.062 for the second.

Going from VKVQPEGKYIVDVAKDI [RPT6] to VKYINFGKTVKDGPFYT [RPC31], the protein stability index falls from 3.29 ± 0.038 to 2.35 ± 0.061.

VLDKMHARARGPRAVLT [RET1] and VLESHWKQDLTKEEAIK [PUP1] are within error of each other in protein stability index: 3.15 ± 0.067 for the first, 3.32 ± 0.12 for the second.

VLGFLQLFHNLISIHSR [YJL039C/NUP192] and VLLATWNLEKWREIIEK [IRR1] are within error of each other in protein stability index: 2.85 ± 0.056 for the first, 2.92 ± 0.1 for the second.

Compared with VLLDARDIEKITSLYAL [CDC53], VLNCLRTMYFILDGQDV [YJR042W/NUP85] is lower in protein stability index: 1.72 ± 0.06 for the first, 1.31 ± 0.1 for the second.

Going from VLNQQLPIESQFVSKLV [BRR2] to VLPKIFNSVKSFDEWFN [SNF2], the protein stability index falls from 1.96 ± 0.1 to 1.55 ± 0.2.

VLPLGSVPEGTIVSNVE [RPL2A] and VLRLKPGRKYTTLGKLS [RPL16A] are within error of each other in protein stability index: 2.78 ± 0.18 for the first, 2.86 ± 0.082 for the second.

Compared with VLSALEGKSVDELITEG [RPP2A], VLTQLTALALKYLIKYN [CSI1] is lower in protein stability index: 3.41 ± 0.073 for the first, 2.55 ± 0.11 for the second.
